The text below walks through data of patent publication US7157570B2, “Human ribonucleotide reductase M2 subunit” (priority 2002, dated 2007).

For one assay, the target named is T1, human RR (Homo sapiens, UniProt P23921).
T1 sequence (P23921 1-792): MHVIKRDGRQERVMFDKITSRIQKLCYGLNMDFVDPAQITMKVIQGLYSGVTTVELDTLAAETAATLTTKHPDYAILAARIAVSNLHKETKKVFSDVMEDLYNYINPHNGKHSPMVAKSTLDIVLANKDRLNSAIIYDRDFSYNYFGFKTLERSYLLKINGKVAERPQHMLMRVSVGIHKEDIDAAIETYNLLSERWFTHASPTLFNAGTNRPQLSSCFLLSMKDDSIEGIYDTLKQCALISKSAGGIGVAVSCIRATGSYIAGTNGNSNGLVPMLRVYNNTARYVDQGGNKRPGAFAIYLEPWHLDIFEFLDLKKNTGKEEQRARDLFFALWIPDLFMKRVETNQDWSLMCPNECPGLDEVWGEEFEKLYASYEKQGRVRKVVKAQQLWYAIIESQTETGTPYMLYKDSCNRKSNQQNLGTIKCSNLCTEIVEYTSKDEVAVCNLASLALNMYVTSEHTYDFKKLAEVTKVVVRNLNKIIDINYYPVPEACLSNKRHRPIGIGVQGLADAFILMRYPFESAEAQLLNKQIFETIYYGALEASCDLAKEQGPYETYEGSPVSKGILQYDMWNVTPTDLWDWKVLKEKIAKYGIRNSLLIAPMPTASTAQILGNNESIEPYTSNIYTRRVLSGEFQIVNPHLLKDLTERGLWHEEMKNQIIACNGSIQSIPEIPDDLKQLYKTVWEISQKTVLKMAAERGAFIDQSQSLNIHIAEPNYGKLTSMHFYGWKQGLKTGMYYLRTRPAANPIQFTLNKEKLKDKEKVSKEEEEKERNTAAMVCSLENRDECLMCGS
Kind of assay: inhibition of human RR activity by C-terminal RRM2 peptide added to the enzyme in vitro. The assay is classed as biochemical. The text has this: Other compounds that can be used to inhibit RRM1 and RRM2 or RRM1 and p53R2 interaction include a peptide or polypeptide containing an amino acid sequence at the C-terminus of RRM2. […] It was further observed that a truncated form of the M2 subunit, lacking these 7 amino acids at the C-terminus, fails to form a complex with the corresponding large subunit M1. […] Thus, methods of treating a cell proliferation-associated disorder using the peptide of SEQ ID NO:5 or its functional equivalents are within the scope of the invention. Peptides or polypeptides that are functionally equivalent to SEQ ID NO:5 can be either longer or shorter than SEQ ID NO:5, or contain substitute amino acids within SEQ ID NO:5, as long as they are capable of inhibiting the interaction between RRM1 and RRM2 or RRM1 and p53R2. Such peptides or polypeptides can be generated and used according to the methods described above or any other methods well known in the art.

In assay [1] the target is T2, ribonucleotide reductase M1 subunit (RRM1) (human, UniProt P23921 1-792, limits assumed).
T2 construct: For the truncation experiment it says only 'the corresponding large subunit M1'; The construct is not described; also called large subunit M1
T2 sequence (looked up): T1 sequence (P23921 1-792)
Put plainly: complex formation assay (method not described).

In the case of “FTLDADF (synthetically generated peptide)”, the “suppression of human RR activity” value in the assay with human RR (added to the enzyme in vitro at ratio 10:1 (peptide:enzyme)) is on record as “dramatically suppress”. Besides, the “inhibition of RR activity compared with RR inhibitors hydroxyurea and triapine” value with human RR (in vitro) is “superior”.

B1: truncated form of the M2 subunit, lacking the 7 amino acids at the C-terminus (enzyme, human, UniProt P31350 1-382, looked up)
chain: MLSLRVPLAPITDPQQLQLSPLKGLSLVDKENTPPALSGTRVLASKTARRIFQEPTEPKTKAAAPGVEDEPLLRENPRRFVIFPIEYHDIWQMYKKAEASFWTAEEVDLSKDIQHWESLKPEERYFISHVLAFFAASDGIVNENLVERFSQEVQITEARCFYGFQIAMENIHSEMYSLLIDTYIKDPKEREFLFNAIETMPCVKKKADWALRWIGDKEATYGERVVAFAAVEGIFFSGSFASIFWLKKRGLMPGLTFSNELISRDEGLHCDFACLMFKHLVHKPSEERVREIIINAVRIEQEFLTEALPVKLIGMNCTLMKQYIEFVADRLMLELGFSKVFRVENPFDFMENISLEGKTNFFEKRVGEYQRMGVMSSPTENS
notes: domain: truncated form lacking the 7 amino acids at the C-terminus; To build it, delete the last 7 residues (FTLDADF) of RRM2; also called truncated M2
Take B1: the binding result in assay [1] is given as “no binding”.
